Data: patent US7030231 (University of California, dated 2006)
Each block holds one binder with its values, some of them ahead of it.

What was measured:
[1] = biological target: T1, inactive Ser805Ala His-tagged MT-SP1 protease domain
T1 chain: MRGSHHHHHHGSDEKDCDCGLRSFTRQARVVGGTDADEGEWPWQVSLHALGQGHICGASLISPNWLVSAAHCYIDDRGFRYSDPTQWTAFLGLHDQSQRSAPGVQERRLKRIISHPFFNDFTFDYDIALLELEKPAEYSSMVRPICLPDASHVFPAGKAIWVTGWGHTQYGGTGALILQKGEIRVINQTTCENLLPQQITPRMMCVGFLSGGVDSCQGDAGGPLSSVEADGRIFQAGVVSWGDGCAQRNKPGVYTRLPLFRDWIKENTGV

[2] = biological target: T2, His-tagged MT-SP1 protease domain (refolded, autoactivated, purified on p-aminobenzamidine resin) (human, UniProt Q9Y5Y6 615-855); test: apparent Ki; inhibition of Spectrozyme tPA hydrolysis by 63 pM enzyme, fit to the tight-binding reversible inhibitor equation
T2 construct: The split 596-614 / 615-855 follows from the stated construct limits and the stated cleavage site; also called His-MT-SP1 protease domain; MT-SP1 His-tagged protease domain
T2 sequence 1: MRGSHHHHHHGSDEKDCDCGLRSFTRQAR
T2 sequence 2: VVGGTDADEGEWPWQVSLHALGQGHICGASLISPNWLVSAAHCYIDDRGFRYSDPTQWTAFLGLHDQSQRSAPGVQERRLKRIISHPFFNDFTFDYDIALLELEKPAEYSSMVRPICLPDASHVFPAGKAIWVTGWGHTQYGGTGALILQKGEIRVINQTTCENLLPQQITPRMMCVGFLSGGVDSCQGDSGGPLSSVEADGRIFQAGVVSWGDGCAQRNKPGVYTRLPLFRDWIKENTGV
Protocol: Ecotin and ecotin M84R/M85R were purified from *E. coli* as described in copending application Ser. Nos. 09/290,513 and 09/289,830, both filed on Apr. 12, 1999. Various concentrations of ecotin or ecotin M84R/M85R were incubated with the His-tagged serine protease domain in a total volume of 990 μL of buffer containing 50 mM NaCl, 50 mM Tris-HCl (pH 8.8), 0.01% Tween 20. 10 μL of Spectrozyme tPA was added, yielding a solution containing 100 μM substrate. The final enzyme concentration was 63 pM, and the ecotin and ecotin M84R/M85R concentration ranged from 0.1 nM to 50 nM. The data were fit to the equation derived for kinetics of reversible tight-binding inhibitors (Morrison (1969) *Biochim. Biophys. Acta* 185: 269–286, Williams and Morrison (1979) *Methods. Enzymol.* 63: 437–467), and the values for apparent K_i were determined.
The enzyme concentration was determined using an active site titration with MUGB. The catalytic activity of the protease domain was monitored using pNA substrates. Purified protease domain was tested for hydrolytic activity against tetrapeptide substrates of the form Suc-AAPX-pNA, which contained various amino acids at the P1 position (P1-Ala, Asp, Glu, Phe, Leu, Met, Lys, or Arg). The only substrates with detectable activity were those with P1-Lys or P1-Arg. The serine protease domain with the Ser^805Ala mutation had no detectable activity. […]

B1: His-tagged MT-SP1 protease domain (refolded, autoactivated, purified on p-aminobenzamidine resin) (protein)
chain 1: MRGSHHHHHHGSDEKDCDCGLRSFTRQAR
chain 2: T2 sequence 2
cleavage monitored by SDS-PAGE [1]: This treatment results in the formation of a cleavage product that corresponds to the size of the active protease

Ki [2]: 9.8 pM
B2: ecotin M84R/M85R (other, E. coli (purified from E. coli), UniProt P23827 21-162, looked up)
chain: AESVQPLEKIAPYPQAEKGMKRQVIQLTPQEDESTLKVELLIGQTLEVDCNLHRLGGKLENKTLEGWGYDYYVFDKVSSPVSTRRACPDGKKEKKFVTAYLGDAGMLRYNSKLPIVVYTPDNVDVKYRVWKAEEKIDNAVVR
notes: They probably count on mature ecotin, not on the precursor with its signal peptide
